Laboratory results published in the supplement of paper PMC9732359.
± gives the uncertainty stated by the source.

Test: protein stability index of a GFP-peptide fusion (yeast GPS) (PSI 1-4); higher = more stable; sorted into four equal gates, so the index is relative within each strain
Summary of the method: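 Sequencing reads from sorted gates were used to score each peptide. The library consisted of tiled 17-residue yeast protein peptides fused downstream of GFP on a Cherry-expressing plasmid, pooled and carried in yeast. Mid-log cultures in leucine-free medium were split into four equal gates by GFP/Cherry ratio, and each gate's plasmids were PCR-amplified and Illumina-sequenced. The protein stability index adds up, over all gates, the read frequency multiplied by the gate number.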

Sequence | protein stability index (doa10∆) | protein stability index (pdr5∆) | protein stability index (san1∆) | protein stability index (ubr1∆)
IYISNLVRSIIAFDDLI [RPN8] | 1.42 ± 0.066 | 1.36 ± 0.11 | 1.17 ± 0.23 | 1.27 ± 0.27
IYLSRFLIKASVREINL [SSN8] | 1.83 ± 0.18 | 1.86 ± 0.13 | 2.04 ± 0.13 | 1.25 ± 0.16
IYNNIVSNIEGILDEIM [RGR1] | 2.72 ± 0.08 | 2.09 ± 0.066 | 2.15 ± 0.098 | 2.46 ± 0.05
IYNSASKASMQKEQNVN [YCS4] | 1.65 ± 0.13 | 2.11 ± 0.13 | 1.58 ± 0.22 | 2.17 ± 0.077
IYRTTRQDGSYTYHSTN [ARP9] | 2.61 ± 0.08 | 2.74 ± 0.083 | 2.27 ± 0.093 | 2.53 ± 0.058
IYRVRVRRGNRKRPVPK [RPL15A] | – | 2.86 ± 0.2 | – | 3.2 ± 0.14
IYSRDIGAELKREESES [SNF2] | 3.06 ± 0.087 | 3.19 ± 0.086 | 3.08 ± 0.066 | 3.01 ± 0.071
KAAAGAGSAALKIIHDT [RPO31] | 3.45 ± 0.13 | 1.8 ± 0.17 | 1.72 ± 0.13 | 1.77 ± 0.18
KAIPTFSFGKPFFSSNT [YIL149C/MLP2] | 3.07 ± 0.048 | 3.14 ± 0.046 | 2.94 ± 0.035 | 3.011 ± 0.028
KAKSNQTQREKAPLQPN [IRR1] | 3.07 ± 0.058 | 3.24 ± 0.052 | 3.09 ± 0.035 | 3.07 ± 0.05
KAKSVVNDVEELGEIID [RMP1] | 3.4 ± 0.14 | – | 2.8 ± 0.26 | –
KALLFFNNEKETEKFAL [RPN12] | 3.25 ± 0.084 | 3.03 ± 0.12 | 3.31 ± 0.059 | 3.17 ± 0.083
KALPIRRDDEVLVVRGS [RPL26A] | 3.06 ± 0.18 | 3.05 ± 0.12 | 3.23 ± 0.13 | 3.32 ± 0.15
KALVLFVPVPALSAYHK [RPS7B] | 2.13 ± 0.063 | 2.51 ± 0.072 | 2.12 ± 0.12 | 2.4 ± 0.041
KAPEQFIENFLTNDTFE [YML103C/NUP188] | 2.84 ± 0.12 | 3.16 ± 0.1 | 2.93 ± 0.12 | 3.02 ± 0.075
KCQTCQEGMNECPGHFG [RPO21] | 3.34 ± 0.17 | 3.23 ± 0.094 | 3.51 ± 0.086 | 3.26 ± 0.091
KDAEDETSSDGSKSDGS [RPN1] | 3.38 ± 0.051 | 3.41 ± 0.054 | 3.64 ± 0.047 | 3.29 ± 0.035
KDAEYLRNYLTPNVREE [PUP1] | 3.09 ± 0.057 | 3.01 ± 0.075 | 3.14 ± 0.056 | 3.16 ± 0.081
KDALSNSILSVRDPWSI [SRB2] | 3.27 ± 0.07 | 3.41 ± 0.087 | 3.1 ± 0.06 | 3.36 ± 0.093
KDEEETEYFENKQSVSN [DSN1] | 3.46 ± 0.12 | 3.4 ± 0.091 | 3.31 ± 0.085 | 3.53 ± 0.054
KDGAKFIEVRNFLGDKK [RPL9A] | – | – | – | 1.35 ± 0.27
KDGSNPRTLIGHRATVT [RPN14] | – | 3.31 ± 0.26 | 3.07 ± 0.14 | –
KDILNLASEVGDPALVY [ECM29] | 2.87 ± 0.09 | 3.15 ± 0.12 | 3.39 ± 0.066 | 2.87 ± 0.076
KDKFNQIPLHRAASVGS [NAS6] | 1.81 ± 0.074 | 2.13 ± 0.079 | 2.05 ± 0.15 | 2.26 ± 0.082
KDLKDDSIYTKPVKVAL [YJL039C/NUP192] | 2.81 ± 0.049 | 2.98 ± 0.045 | 2.73 ± 0.053 | 3.02 ± 0.04
KDLKHIIYYKFNKNLGK [PRP8] | 1.14 ± 0.052 | 1.28 ± 0.053 | 1.32 ± 0.11 | 1.17 ± 0.061
KDLTLCRYSCLALERMV [YCS4] | 2.58 ± 0.23 | 2.36 ± 0.2 | – | 1.79 ± 0.13

Sequence | protein stability index (doa10∆) | protein stability index (pdr5∆) | protein stability index (san1∆) | protein stability index (ubr1∆)
KDMKLLRYYKNIWLNNK [NUT1] | 2.01 ± 0.065 | 1.65 ± 0.074 | 1.97 ± 0.15 | 1.28 ± 0.054
KDMLYSGITGECLQAYI [RET1] | 2.65 ± 0.047 | 2.68 ± 0.051 | 2.5 ± 0.052 | 2.31 ± 0.057
KDQALIGTINSIVHINS [SIR2] | 1.69 ± 0.035 | 1.66 ± 0.032 | 1.75 ± 0.049 | 1.41 ± 0.027
KDSYVRIANIEQNHLDN [YDL088C/ASM4] | 3.12 ± 0.14 | 3.43 ± 0.28 | 3.05 ± 0.13 | 3.18 ± 0.13
KDTNDHVDKRTKIDQEA [ISW2] | 2.6 ± 0.047 | 2.62 ± 0.048 | 2.77 ± 0.051 | 2.57 ± 0.036
KDVAKPTGPKTAIDKNG [FAS2] | 3.31 ± 0.18 | 3.04 ± 0.11 | 3.06 ± 0.074 | 3.19 ± 0.1
KDVKARIAAGDGDDDDE [QCR9] | 1.83 ± 0.13 | 2.29 ± 0.19 | 2.12 ± 0.074 | 2.24 ± 0.12
KDVKAWAGKRLWDQDIA [COR1] | 3.52 ± 0.11 | 3.4 ± 0.11 | 3.27 ± 0.061 | 3.2 ± 0.091
KDVLAQTSVTTNFNEIT [SWP82] | 2.3 ± 0.079 | 2.75 ± 0.06 | 2.7 ± 0.071 | 2.76 ± 0.045
KEEELIERDSLVDDENE [BRN1] | – | – | – | 3.25 ± 0.15
KEIYTTLGNQMLSAHNI [YJR042W/NUP85] | 2.85 ± 0.099 | 2.82 ± 0.077 | 3.12 ± 0.079 | 3.08 ± 0.063
KEKLIGWYHSGPKLRAS [RPN8] | 2.16 ± 0.055 | 2.41 ± 0.045 | 2.53 ± 0.051 | 2.63 ± 0.042
KEKWPSLELQSFQKIPL [YML103C/NUP188] | 2.27 ± 0.1 | 2.62 ± 0.12 | 2.03 ± 0.11 | 2.73 ± 0.11
KELKEKEAAESPEEADV [PUP2] | 3.44 ± 0.082 | 3.56 ± 0.086 | 3.02 ± 0.057 | 3.32 ± 0.054
KENFILDSLMKTTRLLL [YJL039C/NUP192] | 1.96 ± 0.057 | 1.64 ± 0.05 | 1.42 ± 0.095 | 1.61 ± 0.05
KEPRLVIVTDPRSDAQA [RPS0A] | 2.56 ± 0.14 | 3.06 ± 0.087 | 2.94 ± 0.064 | 3.05 ± 0.1
KFADGFLIHSGQPVNDF [RPS3] | 2.67 ± 0.059 | 3.07 ± 0.097 | 3.22 ± 0.074 | 3.06 ± 0.087
KFFMKHGLILELQKIWQ [SRB5] | 2.94 ± 0.096 | 3.02 ± 0.089 | 3.32 ± 0.069 | 3.18 ± 0.037
KFGACVAQGIMNAGGRN [RPN2] | 3.02 ± 0.14 | 2.73 ± 0.28 | 2.52 ± 0.23 | 2.52 ± 0.13
KFIALCEQQPSQEREFS [SIN4] | 2.78 ± 0.055 | 2.82 ± 0.063 | 2.67 ± 0.088 | 2.79 ± 0.056
KFKHIDDKYGRKFALEK [SRP72] | 2.59 ± 0.061 | 2.81 ± 0.069 | 3.17 ± 0.054 | 3 ± 0.052
KFKKEKFDIIIVDTSGR [SRP54] | 2.84 ± 0.046 | 3.01 ± 0.036 | 2.95 ± 0.034 | 3.1 ± 0.04
KFNNTQRESQIGAAELN [SNF12] | 3.01 ± 0.097 | 3.03 ± 0.14 | 2.87 ± 0.057 | 3.38 ± 0.09
KGDGMTSAVASIGSIYQ [RPN1] | 2.67 ± 0.28 | 3.14 ± 0.2 | 2.57 ± 0.23 | 3.03 ± 0.14
KGDINPEVSMIRDIREK [RPB2] | 3.29 ± 0.16 | 2.36 ± 0.082 | 3.4 ± 0.075 | 2.68 ± 0.13
KGGIIASVGDILKTLER [YML031W/NDC1] | 2.99 ± 0.11 | 2.93 ± 0.09 | 3.32 ± 0.092 | 2.87 ± 0.13
KGGSLYGLGLIYAGFGR [RPN2] | 2.15 ± 0.095 | 2.28 ± 0.086 | 2.35 ± 0.063 | 2 ± 0.062
